This note sets out measurements from US20030134310A1.

Data set [1] addresses control mRNA-protein fusion molecule containing an optimized v-abl phosphorylation site (…), phosphorylated by v-abl. As to the kind of experiment: immunoprecipitation of the mRNA-peptide fusion with 4G10 after the v-abl kinase reaction.
The target of data set [2] is TC26 fragment of Shg (clone obtained in round five of the selection).
The target in data set [3] is control peptides (r-series) containing the same amino acids as the test peptides, but in a scrambled order.

Molecule “4G10 anti-phosphotyrosine antibody (Upstate Biotechnology)” yielded a percent of fusion molecules immunoprecipitated in data set [1] of 3%.

B1: ZAP 70 kinase (protein)
chain: MPDPAAHLPFFYGSISRAEAEEHLKLAGMADGLFLLRQCLRSLGGYVLSLVHDVRFHHFPIERQLNGTYAIAGGKAHCGPAELCEFYSRDPDGLPCNLRKPCNRPSGLEPQPGVFDCLRDAMVRDYVRQTWKLEGEALEQAIISQAPQVEKLIATTAHERMPWYHSSLTREEAERKLYSGAQTDGKFLLRPRKEQGTYALSLIYGKTVYHYLISQDKAGKYCIPEGTKFDTLWQLVEYLKLKADGLIYCLKEACPNSSASNASGAAAPTLPAHPSTLTHPQRRIDTLNSDGYTPEPARITSPDKPRPMPMDTSVYESPYSDPEELKDKKLFLKRDNLLIADIELGCGNFGSVRQGVYRMRKKQIDVAIKVLKQGTEKADTEEMMREAQIMHQLDNPYIVRLIGVCQAEALMLVMEMAGGGPLHKFLVGKREEIPVSNVAELLHQVSMGMKYLEEKNFVHRDLAARNVLLVNRHYAKISDFGLSKALGADDSYYTARSAGKWPLKWYAPECINFRKFSSRSDVWSYGVTMWEALSYGQKPYKKMKGPEVMAFIEQGKRMECPPECPPELYALMSDCWIYKWEDRPDFLTVEQRMRACYYSLASKVEGPPGSTQKAEAACA
Take B1: the phosphorylation in vitro result in the data set with full-length Shg protein was “the full-length Shg protein was phosphorylated by both v-abl and ZAP 70 in vitro”.

B2: recombinant v-abl tyrosine kinase (New England Biolabs) (protein)
chain: YITPVNSLEKHSWYHGPVSRNAAEYLLSSGINGSFLVRESESSPGQRSISLRYEGRVYHYRINTASDGKLYVSSESRFNTLAELVHHHSTVADGLITTLHYPAPKRNKPTIYGVSPNYDKWEMERTDITMKHKLGGGQYGEVYEGVWKKYSLTVAVKTLKEDTMEVEEFLKEAAVMKEIKHPNLVQLLGVCTREPPFYIITEFMTYGNLLDYLRECNRQEVSAVVLLYMATQISSAMEYLEKKNFIHRDLAARNCLVGENHLVKVADFGLSRLMTGDTYTAHAGAKFPIKWTAPESLAYNKFSIKSDVWAFGVLLWEIATYGMSPYPGIDLSQVYELLEKDYRMERPEGCPEKVYELMRACWQWNPSDRPSFAEIHQAFETMFQESSISDEVEKELGKRG
Take B2: in data set [2], the “phosphorylation of mutagenized TC26 peptides with [γ-32P]ATP” value is “only the first tyrosine is a substrate for v-abl”. For the same molecule, in data set [3], the “v-abl kinase activity on 5 µM substrate EAIYAAPFAKKK” value was “did not have a significant effect on v-abl kinase activity”. For the same molecule, the phosphorylation in vitro entry with full-length Shg protein was “the full-length Shg protein was phosphorylated by both v-abl and ZAP 70 in vitro”.
